For experiment [1], the target named is T1, cytochrome c (Homo sapiens, UniProt P99999).
T1 construct: obtained by immunizing male rabbits with full-length recombinant Cc; made in house; host or cells: E. coli BL21 (DE3)
Nature of the experiment: ITC titration of full-length ANP32A or ANP32A1-167 with reduced Cc. As to conditions: low ionic strength (25 mM). Format: binding. The procedure:
Isothermal titration calorimetry (ITC) experiments were performed using a Nano ITC Low Volume instrument (TA Instruments, USA). The reference cell was filled with distilled water. Titration experiments between reduced Cc and ANP32A or ANP32A1‐167 consisted of 17 injections of 2.91 µL of a 400 µM reduced Cc solution into the sample cell containing 50 µM ANP32A construct. Both Cc and ANP32A proteins were dialyzed against 10 mM sodium phosphate buffer pH 7.4. Assays performed at moderate ionic strength used the same experimental setup, but proteins were dialyzed against 20 mM sodium phosphate pH 7.4 with 50 mM NaCl. […] ANP32A, ANP32A230‐249 and ANP32B232‐251 titration data were analyzed using Origin 7.0 (OriginLab), employing a single‐ligand binding site model or a two‐ligand binding sites model. […] ANP32A1‐167 titration data was processed and analyzed using NanoAnalyze software (TA instruments).
ITC experiments were performed using a Nano ITC Low Volume instrument (TA Instruments, USA). […] ANP32A, ANP32A230-249 and ANP32B232-251 titration data was analyzed using Origin 7.0 (OriginLab), employing a single ligand binding site model or a two ligand binding sites model. […] ANP32A1-167 titration data were processed and analyzed using NanoAnalyze software (TA instruments).
In general terms: Isothermal titration calorimetry measures the heat released or taken up as one component is titrated into another.

The next experiment has as its system 15N-labeled Cc. Nature of the experiment: NMR titration (1H-15N HSQC) of 15N Cc with ANP32A or ANP32A1-167. The class given is binding. The following applies: low ionic strength; 25 °C. The procedure: NMR titrations of 30 µM ^15N reduced Cc with ^14N ANP32A constructs were followed by 1D ^1H and 2D ^1H-^15N heteronuclear single quantum correlation (HSQC) spectra on a Bruker Avance-III 600 MHz equipped with a cryoprobe at 25 °C. ^15N-labelled reduced Cc (in 10 mM sodium phosphate buffer, pH 7.4) was titrated with increasing amounts of ^14N ANP32A dialyzed against the same buffer. Reduced ^15N Cc and ^14N ANP32A1-167 construct were titrated in 5 mM sodium phosphate buffer pH 6.4. To maintain the redox state of Cc and to adjust the lock signal on the NMR spectrometer, 0.1 mM of sodium ascorbate and 10% of D2O were added, respectively. Data were acquired and processed using TopSpin NMR 3.5pl7 software (Bruker).
Line broadening and chemical-shift perturbation analysis were performed using the Sparky 3 NMR assignment tool (T.D. Goddard and D.G. Kneller, University of California San Francisco, USA). Assignment of ANP32A230-249 and ANP32B232-251 peptides was performed using NMRFAM-SPARKY software distribution (National Magnetic Resonance Facility at Madison) and further imported to CCPNMR ^[1], whereby distance restraints were calculated using its built-in module.

Another experiment concerns histone H3. Nature of the experiment: Coimmunoprecipitation of c-myc-ANP32A/B with histone H3. Format: binding. The following applies: anti-c-myc, Western blot; representative of three experiments. How it is done: HEK293T cells were transfected with a plasmid encoding ANP32A/b-c-myc. 24 h after transfection, cells were collected for lysates preparation in buffer containing 20 mM Tris-HCl pH 7.5, 100 mM NaCl, 0.5% NP40, 0.1 mM PMSF and cOmplete™. Cells were lysed by sonication and precleared by incubation with sepharose-A beads (GE Healthcare, GE17-5280-01) for 1 h at 4 °C. The lysates were then incubated with anti-c-myc (see Pull-down assays) over night at 4 °C and subsequently with sepharose-A beads (GE Healthcare, GE17-5280-01) for 1 h at room temperature with rotation. Following 6 washes with PBS, the samples were resuspended in SDS loading buffer and analyzed by western blotting.
A general note: Immunoblotting shows a protein as a band on a membrane.

Experiment [2] has as its target T1, cytochrome c. As to conditions: Cc-ANP32B, low ionic strength; ref [31]; cited from earlier work. An excerpt: Although both ANP32A and ANP32B interact with Cc via their C‐terminal region, there are remarkable differences in the thermodynamic parameters and binding surfaces between full‐length ANP32A and ANP32B in complex with Cc (Figure 3C,F).^[ [31] ^] […] These di ...

T1 sequence (P99999 whole entry): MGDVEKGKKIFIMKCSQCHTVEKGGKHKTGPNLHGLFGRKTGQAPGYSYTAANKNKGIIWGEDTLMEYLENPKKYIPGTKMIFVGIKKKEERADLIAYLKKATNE

B1: ANP32A1‐167: ANP32A construct lacking its LCAR (protein)
chain: MEMGRRIHLELRNRTPSDVKELVLDNSRSNEGKLEGLTDEFEELEFLSTINVGLTSIANLPKLNKLKKLELSDNRVSGGLEVLAEKCPNLTHLNLSGNKIKDLSTIEPLKKLENLKSLDLFNCEVTNLNDYRENVFKLLPQLTYLDGYDRDDKEAPDSDAEGYVEGL
Regarding B1, the “binding to Cc by ITC, in words” value with cytochrome c [1] was “unable to interact with Cc even at low ionic strength”. The “chemical-shift perturbations of Cc amide signals, in words” value in the experiment with 15N-labeled Cc is recorded as “no significant chemical‐shift perturbations”.

B2: ANP32B: acidic leucine‐rich nuclear phosphoprotein 32 B, histone chaperone, paralog of ANP32A (protein, UniProt Q92688 1-251, looked up)
Acidic leucine-rich nuclear …: MDMKRRIHLELRNRTPAAVRELVLDNCKSNDGKIEGLTAEFVNLEFLSLINVGLISVSNLPKLPKLKKLELSENRIFGGLDMLAEKLPNLTHLNLSGNKLKDISTLEPLKKLECLKSLDLFNCEVTNLNDYRESVFKLLPQLTYLDGYDREDQEAPDSDAEVDGVDEEEEDEEGEDEEDEDDEDGEEEEFDEEDDEDEDVEGDEDDDEVSEEEEEFGLDEEDEDEDEDEEEEEGGKGEKRKRETDDEGEDD
Broadly, the Kd is the concentration at which binding is half-saturated. For the molecule B2, the “coimmunoprecipitation of histone H3, in words” value in the experiment on histone H3 was “H3 binds both ANP32 proteins in a similar manner”. In addition, in the experiment with cytochrome c [2], the dissociation constant Kd was about 9.5 µM and the “–TΔS” value is 16.3 kJ/mol.

These data come from publication PMC11948038, “Evolutionary Pro‐To‐Thr Mutation in the Intrinsically Disordered Domain of ANP32 Family Members Modulates Their Target Binding Modes” (Advanced Science, 2025).
